Data: patent publication US20070015231A1, “Assay for protein tyrosine phosphatases” (CEPTYR, Inc., priority 2000, published 2007)
Read-outs that look alike come from different tables or passages of the source. Square brackets hold non-standard residues; d marks the D form. Ends that are not written are not given here. pY = N[C@@H](Cc1ccc(OP(=O)(O)O)cc1)C(=O)O

Experiments:
CD45 = molecular target: T1, CD45 (Homo sapiens, UniProt P08575); details: p56lck residues 500-509 peptide; read-out: Km toward CD45; cited from earlier work
T1 sequence (P08575 26-1306): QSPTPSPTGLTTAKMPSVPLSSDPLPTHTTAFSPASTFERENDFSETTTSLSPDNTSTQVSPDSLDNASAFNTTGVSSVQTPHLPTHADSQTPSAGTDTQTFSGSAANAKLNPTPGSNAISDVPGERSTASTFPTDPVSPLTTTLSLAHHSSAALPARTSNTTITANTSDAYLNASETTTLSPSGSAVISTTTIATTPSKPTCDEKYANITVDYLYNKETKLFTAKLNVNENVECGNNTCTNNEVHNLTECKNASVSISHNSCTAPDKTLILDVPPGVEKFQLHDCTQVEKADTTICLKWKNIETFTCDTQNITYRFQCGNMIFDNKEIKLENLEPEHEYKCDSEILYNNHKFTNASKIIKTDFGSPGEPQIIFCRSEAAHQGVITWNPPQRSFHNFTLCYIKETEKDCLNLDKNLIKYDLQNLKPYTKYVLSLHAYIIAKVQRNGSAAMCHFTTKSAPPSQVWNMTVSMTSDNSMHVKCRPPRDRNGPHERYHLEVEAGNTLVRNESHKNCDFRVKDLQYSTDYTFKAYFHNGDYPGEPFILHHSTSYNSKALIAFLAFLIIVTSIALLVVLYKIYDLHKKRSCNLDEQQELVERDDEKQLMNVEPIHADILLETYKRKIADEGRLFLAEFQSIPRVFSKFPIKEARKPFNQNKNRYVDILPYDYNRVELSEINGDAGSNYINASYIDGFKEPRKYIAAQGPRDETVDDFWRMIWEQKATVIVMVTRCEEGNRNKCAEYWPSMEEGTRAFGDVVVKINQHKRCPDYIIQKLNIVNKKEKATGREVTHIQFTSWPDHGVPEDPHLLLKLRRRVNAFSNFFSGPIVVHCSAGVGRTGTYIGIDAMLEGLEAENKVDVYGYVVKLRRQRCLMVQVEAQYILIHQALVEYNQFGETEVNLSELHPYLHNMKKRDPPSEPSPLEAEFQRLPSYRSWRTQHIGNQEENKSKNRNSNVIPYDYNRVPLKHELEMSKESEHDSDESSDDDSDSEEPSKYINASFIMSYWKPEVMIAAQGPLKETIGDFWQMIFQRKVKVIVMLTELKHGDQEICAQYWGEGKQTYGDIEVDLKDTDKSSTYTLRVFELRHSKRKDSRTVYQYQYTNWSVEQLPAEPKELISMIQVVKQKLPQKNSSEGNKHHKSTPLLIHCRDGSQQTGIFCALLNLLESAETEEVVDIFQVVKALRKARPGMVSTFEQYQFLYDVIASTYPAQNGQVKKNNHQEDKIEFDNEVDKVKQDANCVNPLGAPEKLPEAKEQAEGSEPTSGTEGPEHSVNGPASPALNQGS

C215S PTP1B = molecular target: T2, C215S PTP1B (Homo sapiens, UniProt P18031, C215S); experiment: Inhibition of fluorescent EGF receptor peptide binding to CS substrate binding mutant (FP); details: Table 3; fluorescein-labeled EGF receptor peptide
T2 construct: PTP1B proteins (wild type and mutant forms) comprising amino acids 1-321 were expressed in E. coli; made in house; host or cells: E. coli
T2 sequence (P18031 1-321 C215S): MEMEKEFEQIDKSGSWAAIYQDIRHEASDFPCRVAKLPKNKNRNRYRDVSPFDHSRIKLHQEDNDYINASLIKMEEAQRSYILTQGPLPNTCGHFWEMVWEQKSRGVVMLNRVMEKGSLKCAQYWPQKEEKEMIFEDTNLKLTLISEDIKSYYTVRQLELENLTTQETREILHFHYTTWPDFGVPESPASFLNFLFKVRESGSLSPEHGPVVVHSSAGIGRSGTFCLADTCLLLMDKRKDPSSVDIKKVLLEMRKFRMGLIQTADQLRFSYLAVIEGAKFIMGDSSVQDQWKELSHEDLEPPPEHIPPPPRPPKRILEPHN
Experimental: (§1) To the test agents was added 40 μl of 3 nM CS or DA binding mutant of PTP1B in Assay Buffer. Plates were shaken for 30 sec to mix the two solutions. After another 12.5 minutes 40 μl of 3 nM fluorescein-labeled EGF receptor peptide was added and the solutions mixed for 30 sec. After 12.5 minutes of incubation the plates were read as described in Example 3.

D181A PTP1B = molecular target: T3, D181A PTP1B (Homo sapiens, UniProt P18031, D181A); experiment: Inhibition of fluorescent EGF receptor peptide binding to DA substrate binding mutant (FP)
T3 construct: PTP1B proteins (wild type and mutant forms) comprising amino acids 1-321 were expressed in E. coli; made in house; host or cells: E. coli
T3 sequence (P18031 1-321 D181A): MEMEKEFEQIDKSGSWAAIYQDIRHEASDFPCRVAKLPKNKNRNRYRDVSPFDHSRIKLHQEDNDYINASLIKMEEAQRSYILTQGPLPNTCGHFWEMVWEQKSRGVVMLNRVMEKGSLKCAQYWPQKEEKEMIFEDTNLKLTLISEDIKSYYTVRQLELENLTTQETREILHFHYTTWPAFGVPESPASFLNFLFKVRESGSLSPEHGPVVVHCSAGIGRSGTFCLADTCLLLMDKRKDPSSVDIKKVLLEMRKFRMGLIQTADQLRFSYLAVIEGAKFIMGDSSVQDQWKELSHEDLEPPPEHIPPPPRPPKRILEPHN
Experimental: as §1

[1] = molecular target: T4, fluorescein-labeled EGF receptor derived phosphopeptide D-A-D-E-pY-L-NH2 (not fully specified)
T4 chain: DADEYL

PTP1B = molecular target: T5, PTP1B (Homo sapiens, UniProt P18031); experiment: PTP catalytic assay of F-ERP-P dephosphorylation with alternate reaction terminator molecules (FP); format: biochemical; details: reactions stopped after 11 min, polarization stable for 14 hours
T5 construct: PTP1B proteins (wild type and mutant forms) comprising amino acids 1-321 were expressed in E. coli; made in house; host or cells: E. coli
T5 sequence (P18031 1-321): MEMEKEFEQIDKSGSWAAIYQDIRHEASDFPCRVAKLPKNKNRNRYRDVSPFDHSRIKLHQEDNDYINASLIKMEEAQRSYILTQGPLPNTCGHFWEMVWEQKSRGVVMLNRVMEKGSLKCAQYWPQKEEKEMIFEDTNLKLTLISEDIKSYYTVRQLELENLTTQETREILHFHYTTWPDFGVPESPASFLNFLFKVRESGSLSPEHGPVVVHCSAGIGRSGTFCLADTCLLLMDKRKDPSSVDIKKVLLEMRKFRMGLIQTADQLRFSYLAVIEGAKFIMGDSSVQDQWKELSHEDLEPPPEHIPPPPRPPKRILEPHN
Experimental: The ability of each reaction terminator molecule also was assessed in the presence and absence of vanadate (a well known, nonspecific PTP inhibitor).
Assays were set up in black polypropylene plates with 20 μl of 25 mM Tris HCl pH 7.5 and 20 μl of 300 nM F-ERP-P in 25 mM Tris HCl pH 7.5, 1 mM EDTA, 1 mM DTT, 0.25 mg/ml ovalbumin (TEOD buffer). […] Plates were read using the Polarstar instrument from BMG Lab Technologies using the following settings:
As in Example 3, wells were set up to measure background fluorescence to allow proper calculation of mP values and other wells were set up without addition of terminator reagent to assess the minimum polarization value of the unbound fluorescent phosphotyrosyl peptide (F-ERP-P).

[2] = molecular target: fluorescein-labeled EGF receptor derived phosphopeptide D-A-D-E-pY-L-NH2 (human); experiment: fluorescence polarization, C215S PTP1B as reaction terminator (Polarstar reader)
[3] = molecular target: fluorescein-labeled EGF receptor derived phosphopeptide D-A-D-E-pY-L-NH2 (human); experiment: fluorescence polarization, mutant PTP titrated against fluorescein-labeled peptide in solution
[4] = molecular target: fluorescein-labeled insulin receptor derived phosphopeptide T-R-D-I-pY-E-T-D-Y-Y-R (human); experiment: as above
[5] = molecular target: fluorescein-labeled EGF receptor derived phosphopeptide D-A-D-E-pY-L-NH2 (human); experiment: fluorescence polarization, mutant PTP titrated against fluorescein-labeled peptide in solution (midpoint = apparent Kd)
[6] = molecular target: fluorescein-labeled insulin receptor derived phosphopeptide T-R-D-I-pY-E-T-D-Y-Y-R (human); experiment: as above

A-T-E-G-Q-pY-Q-P-Q-P (ATEGQ[pY]QPQP; also: fluorescein label) [F-lck-P]
Km (CD45): 130 µM

OO [H2O2, hydrogen peroxide]
IC50 (C215S PTP1B): 250 µM | IC50 (D181A PTP1B; Table 3, fluorescein-labeled EGF receptor peptide, read-out: D181A IC50): 10 µM | IC50 (D181A PTP1B; read-out: IC50 for inhibition of the DA substrate binding mutant): ~10 µM

B1: PTP1B (wild type), amino acids 1-321 (protein)
chain: MEMEKEFEQIDKSGSWAAIYQDIRHEASDFPCRVAKLPKNKNRNRYRDVSPFDHSRIKLHQEDNDYINASLIKMEEAQRSYILTQGPLPNTCGHFWEMVWEQKSRGVVMLNRVMEKGSLKCAQYWPQKEEKEMIFEDTNLKLTLISEDIKSYYTVRQLELENLTTQETREILHFHYTTWPDFGVPESPASFLNFLFKVRESGSLSPEHGPVVVHCSAGIGRSGTFCLADTCLLLMDKRKDPSSVDIKKVLLEMRKFRMGLIQTADQLRFSYLAVIEGAKFIMGDSSVQDQWKELSHEDLEPPPEHIPPPPRPPKRILEPHN
time to complete dephosphorylation of F-ERP-P (fluorescence polarization catalytic assay) [1]: under these conditions the dephosphorylation of F-ERP-P was complete by 20 minutes

B2: PTP1B(C215S), amino acids 1-321 (protein)
chain: MEMEKEFEQIDKSGSWAAIYQDIRHEASDFPCRVAKLPKNKNRNRYRDVSPFDHSRIKLHQEDNDYINASLIKMEEAQRSYILTQGPLPNTCGHFWEMVWEQKSRGVVMLNRVMEKGSLKCAQYWPQKEEKEMIFEDTNLKLTLISEDIKSYYTVRQLELENLTTQETREILHFHYTTWPDFGVPESPASFLNFLFKVRESGSLSPEHGPVVVHSSAGIGRSGTFCLADTCLLLMDKRKDPSSVDIKKVLLEMRKFRMGLIQTADQLRFSYLAVIEGAKFIMGDSSVQDQWKELSHEDLEPPPEHIPPPPRPPKRILEPHN
termination of PTP1B-mediated dephosphorylation of F-ERP-P [1]: monoclonal antiphosphotyrosine antibody G104 and the C215S-PTP1B binding mutant were equally effective at stopping the dephosphorylation reaction | stopping of the dephosphorylation reaction (reaction terminator) (PTP1B): equally effective at stopping the dephosphorylation reaction | maximum polarization value for bound peptide [2]: 300 mP | Peak mP [3]: 316 mP | Peak mP [4]: 151 mP | EC50 [5]: 0.000965 µM | EC50 [6]: 0.00116 µM
